Measured values from patent US20150231240A1, “ANTI-C16ORF54 ANTIBODIES AND METHODS OF USE THEREOF” (priority 2012, published 2015).

T1: human C16orf54 ECD fragment aa1-15 (human)
T1 peptide: MPLTPEPPSGRVEGP

T2: human C16orf54 ECD fragment aa9-24 (human)
T2 peptide: SGRVEGPPAWEAAPWP

T3: human C16orf54 (human, UniProt Q6UWD8 1-224)
T3 construct: also called huC16orf54; hC16orf54
T3 sequence: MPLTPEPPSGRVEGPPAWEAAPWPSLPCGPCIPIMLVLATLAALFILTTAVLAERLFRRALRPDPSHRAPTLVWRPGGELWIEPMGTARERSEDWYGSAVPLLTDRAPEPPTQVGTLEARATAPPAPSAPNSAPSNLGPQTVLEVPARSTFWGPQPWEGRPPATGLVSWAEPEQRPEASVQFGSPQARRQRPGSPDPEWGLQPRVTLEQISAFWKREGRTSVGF

T4: Human C16-ECD peptide (aa1-31) (human)
T4 construct: Coated on plates in the peptide ELISA; also called human extracellular domain peptide
T4 peptide: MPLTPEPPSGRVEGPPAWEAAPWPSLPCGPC


Key:
[1] = system: human erythroid and myeloid progenitors (normal human bone marrow); experiment: Colony forming unit (CFU) progenitor cell assays; assay type: cell-based; conditions: for BFU-E / CFU-E / CFU-GEMM / CFU-GM / Total CFC / Total Erythroid: colonies after 14 days; for direct effect on colony number or colony size of bone marrow progenitors: 0.032-100 μg/ml added directly into the methylcellulose matrix, 14 days; for indirect effect on colony number or colony size of progenitors: 0.032-100 μg/ml, 24 hours liquid culture, then methylcellulose matrix
Method: Colony forming unit (CFU) assays were performed to establish if there is binding of anti-C16orf54 antibodies to various progenitor cells including: CFU-E: colony forming unit erythroid (erythroid colony forming cells); BFU-E: burst forming unit erythroid (earliest known erythroid precursor cells); CFU-GM: colony forming unit granulocyte/macrophage (granulocyte-macrophage colony forming cells); and CFU-GEMM: colony forming unit granulocyte, erythrocyte, monocyte/macrophage, megakaryocyte (most primitive colony-forming cells). […] Clogenic progenitors of the human erythroid and myeloid lineages were set up in methylcellulose-based medium. All test antibodies and reagents were added to the medium at indicated concentrations. Triplicate cultures were initiated for each condition. Following 14 days in culture myeloid and erythroid colonies were assessed microscopically and scored. For these assays, anti-C16orf54 antibodies were evaluated for their direct and indirect effects on human erythroid and myeloid progenitor proliferation. […] Indirect effects on progenitors were assessed by incubating the cells with these antibodies in a liquid culture for 24 hours and subsequent culture of these cells in the methylcellulose matrix.

[2] = target: T1, human C16orf54 ECD fragment aa1-15; experiment: peptide ELISA, 2 ug/ml peptide coated, 10 ug/ml antibody
Method: (§1) Anti-C16orf54 antibodies which bind to human C16orf54, including antibodies that are crossreactive with cyno C16orf54, were tested for their binding to various peptides derived from C16orf54 in a peptide ELISA. A 384-well high binding black microplate (Greiner) was incubated with 2 μg/ml of protein (human, cyno, or mouse extracellular domain peptides) for 16 hours, incubated for 1 hr with a blocking buffer (PBS with 5% Fetal Bovine Serum), washed four times with TBS with Tween, incubated for 1 hour with 10 μg/ml of anti-C16orf54 antibody, washed four times with TBS with Tween, incubated for 1 hour with 10 μg/ml of Peroxidase-AffiniPure Goat Anti-Mouse IgG, Fcγ Fragment Specific (Jackson ImmunoResearch), washed four times with TBS with Tween, and peroxidase was detected with a luminometer (Molecular Devices) upon addition of SuperSignal® ELISA Pico Chemiluminescent Substrate (Thermo Scientific). The luminescence signal was determined.

[3] = target: T2, human C16orf54 ECD fragment aa9-24; experiment: as above
Method: as §1

human C16orf54 [4] = target: T3, human C16orf54; experiment: flow cytometry, Granta-519 lymphoma cells (endogenous C16orf54), 1 repeat
human C16orf54 [5] = target: T3, human C16orf54; experiment: flow cytometry, NCI-H716 colon cancer cells (endogenous C16orf54), 2 repeats
human C16orf54 [6] = target: T3, human C16orf54; experiment: flow cytometry, SW1990 pancreatic cancer cells (endogenous C16orf54), 3 repeats
[7] = target: T4, Human C16-ECD peptide (aa1-31); experiment: column head 'Full kinetics (nM)' in the table of the C16orf54 peptide binding assays; method and antigen not described; 4 runs
human C16orf54 [8] = target: T3, human C16orf54; experiment: flow cytometry, REH leukemia cells (endogenous C16orf54), 3 repeats
human C16orf54 [9] = target: T3, human C16orf54; experiment: flow cytometry, KG-1 leukemia cells (endogenous C16orf54), 6 repeats
human C16orf54 [10] = target: T3, human C16orf54; experiment: cell ELISA on huC16orf54-expressing sarcoma cells, purified antibody in 1:4 eight-point dilution from 200 nM, 2 h at 4 C, anti-mouse IgG Fc HRP luminescence
Method: Purified anti-huC16orf54 monoclonal antibodies were also tested for binding by ELISA. huC16orf54-expressing sarcoma cells were incubated with an 1:4 eight-point dilution series starting with 200 nM of anti-huC16orf54 antibody for 2 hours at 4° C. After washing, the cells were incubated with a secondary antibody (Jackson Immunologicals Goat×IgG, Fc specific HRP—Product#115-035-071) and detected with SuperSignal® ELISA Pico Chemiluminescent substrate (Thermo Scientific—Product#37069). EC50 values were determined using Graphpad Prism® software. An isotype control, R22-4-26A, is also shown.

Molecule | BFU-E ([1]; 0.032 μg/ml) | CFU-E ([1]; 0.032 μg/ml) | CFU-GM ([1]; 0.032 μg/ml) | Total CFC ([1]; 0.032 μg/ml) | Total Erythroid ([1]; 0.032 μg/ml) | BFU-E ([1]; 0.8 μg/ml) | CFU-E ([1]; 0.8 μg/ml) | CFU-GM ([1]; 0.8 μg/ml) | Total CFC ([1]; 0.8 μg/ml) | Total Erythroid ([1]; 0.8 μg/ml) | BFU-E ([1]; 4 μg/ml) | CFU-E ([1]; 4 μg/ml) | CFU-GM ([1]; 4 μg/ml) | Total CFC ([1]; 4 μg/ml) | Total Erythroid ([1]; 4 μg/ml) | BFU-E ([1]; 20 μg/ml) | CFU-E ([1]; 20 μg/ml) | CFU-GEMM ([1]; 20 μg/ml) | CFU-GM ([1]; 20 μg/ml) | Total CFC ([1]; 20 μg/ml) | also measured
R29-7-1C: murine anti-C16orf54 monoclonal antibody, IgG2a; VH SEQ ID NO: 8, VL SEQ ID NO: 10 (antibody, V domains shown, R29-7-1C heavy chain variable region; R29-7-1C light chain variable region) VH: MRVLILLWLFTAFPGILSDVQLQESGPGLVKPSQSLSLTCTVTGYSITSDYAWNWIRQFPGNKLEWMGYISYSGSIRYNPSLKSRISITRDTSKNQFFLQLNSVTTEDTATYYCAREKYDNYYYAMDYWGQGTSVTVSS VL: MDSQAQVLMLLLLWVSGTCGDIVMSQSPSSLAVSVGEKVTLSCKSSQNLLYSTNQKNYLAWYQQKPGQSPKLLIYWASTRESGVPDRFTGSGSGTDFTLTISSVKAEDLAVYYCQQYYSYRTFGGGTKLEIK | 31 +/− 2 | 8 +/− 2 | 45 +/− 3 | 83 +/− 4 | 38 +/− 4 | 31 +/− 2 | 8 +/− 2 | 42 +/− 4 | 82 +/− 3 | 39 +/− 4 | 32 +/− 2 | 7 +/− 2 | 44 +/− 4 | 82 +/− 6 | 38 +/− 3 | 28 +/− 5 | 8 +/− 2 | 1 +/− 1 | 40 +/− 5 | 76 +/− 8 | CFU-GEMM ([1]; 0.032 μg/ml): 1 +/− 1; CFU-GEMM ([1]; 0.8 μg/ml): 1 +/− 1; Total Erythroid ([1]; 20 μg/ml): 36 +/− 4; BFU-E ([1]; 100 μg/ml): 30 +/− 3; CFU-E ([1]; 100 μg/ml): 8 +/− 3; CFU-GEMM ([1]; 100 μg/ml): 1 +/− 1; CFU-GM ([1]; 100 μg/ml): 44 +/− 4; Total CFC ([1]; 100 μg/ml): 82 +/− 4; Total Erythroid ([1]; 100 μg/ml): 38 +/− 4; direct effect on colony number or colony size of bone marrow progenitors [1]: no effect on colony number or colony size of bone marrow progenitors; indirect effect on colony number or colony size of progenitors [1]: no effect on colony number or colony size
R29-67-7A: murine anti-C16orf54 monoclonal antibody, IgG2a; VH SEQ ID NO: 12, VL SEQ ID NO: 14 (antibody, V domains shown, R29-67-7A heavy chain variable region; R29-67-7A light chain variable region) VH: MRVLILLWLFTAFPGILSDVQLQESGPGLVKPSQSLSLTCTVTGYSITSDYAWNWIRQFPGNKLEWMGYINYSGRTRYNPSLNSRISLTRDTSTNQFFLQLNSVTTEDTATYYCARENYDYEFYAMDYWGQGTSVTVSS VL: MESQAQVLMLLLLWVSGTCGDIVMSQSPSSLAVSVGEKVTMSCKSSQNLLYSSNQKNYLAWYQQKPGQSPKLLIYWASTRESGVPDRFTGSGSGTDFTLTISSVKAEDLAVYYCQQYYIYRTFGGGTKLEIK | 28 +/− 2 | 7 +/− 2 | 39 +/− 3 | 74 +/− 4 | 35 +/− 1 | 32 +/− 3 | 7 +/− 2 | 43 +/− 5 | 81 +/− 6 | 38 +/− 5 | 30 +/− 2 | 9 +/− 2 | 43 +/− 2 | 81 +/− 1 | 39 +/− 3 | 33 +/− 3 | 6 +/− 2 | 1 +/− 1 | 40 +/− 1 | 79 +/− 4 | Total Erythroid ([1]; 20 μg/ml): 39 +/− 3; BFU-E ([1]; 100 μg/ml): 32 +/− 2; CFU-E ([1]; 100 μg/ml): 7 +/− 2; CFU-GM ([1]; 100 μg/ml): 43 +/− 6; Total CFC ([1]; 100 μg/ml): 83 +/− 5; Total Erythroid ([1]; 100 μg/ml): 39 +/− 3; direct effect on colony number or colony size of bone marrow progenitors [1]: no effect on colony number or colony size of bone marrow progenitors; indirect effect on colony number or colony size of progenitors [1]: no effect on colony number or colony size
R29-7-1C (antibody, V domains shown, Murine monoclonal IgG2a from a hybridoma) VH: DVQLQESGPGLVKPSQSLSLTCTVTGYSITSDYAWNWIRQFPGNKLEWMGYISYSGSIRYNPSLKSRISITRDTSKNQFFLQLNSVTTEDTATYYCAREKYDNYYYAMDYWGQGTSVTVSS VL: DIVMSQSPSSLAVSVGEKVTLSCKSSQNLLYSTNQKNYLAWYQQKPGQSPKLLIYWASTRESGVPDRFTGSGSGTDFTLTISSVKAEDLAVYYCQQYYSYRTFGGGTKLEIK | – | – | – | – | – | – | – | – | – | – | – | – | – | – | – | – | – | – | – | – | binding result [2]: binds; binding result [3]: binds; Average MFI fold change relative to isotype control (human C16orf54 [4]): 3.8 fold; Average MFI fold change relative to isotype control (human C16orf54 [5]): 3.4 fold; Average MFI fold change relative to isotype control (human C16orf54 [6]): 1.9 fold; Kd [7]: 770 pM; Average MFI fold change relative to isotype control (human C16orf54 [8]): 6.4 fold; Average MFI fold change relative to isotype control (human C16orf54 [9]): 16.9 fold; EC50 (read off the curve) (human C16orf54 [10]): ~70 pM
